Measurements: the supplement of paper PMC10567573
± gives the standard deviation.

Assay: protein stability index of a GFP-peptide fusion (GPS, HEK-293T) (PSI 1-6); higher = more stable
Conditions: c terminus: a fixed tail appended
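Also: 24-mer peptide tiles fused after GFP, lentivirally expressed, FACS-sorted into six equal bins by GFP/DsRed ratio, decoded by Illumina sequencing, PSI is the read-weighted mean bin number.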

Sequence | protein stability index (treatment: DMSO) | protein stability index (treatment: MLN4924 1 uM, 8 h)
HSGYDFGYLIKILTNSNLPEEELD [CNOT7] | 2.27 ± 0.19 | 2.48 ± 0.3
HSLERAGSKQYSAAIAFTLALFSH [SMG5] | 2.48 ± 0.41 | 2.49 ± 0.44
IAVLPRYVEIRTFEPRLLVQSIEL [VPS39] | 2.97 ± 0.57 | 2.88 ± 0.38
IDEYCVQQLKEFDGKSLVSVTKEG [HSP90AB1] | 5.19 ± 0.25 | 4.99 ± 0.14
IDGVATTRYSVAGLSPYSDYEFRV [PTPRD] | 2.02 ± 0.24 | 2.02 ± 0.29
IEGAPEVTMSSLFKHILRTEGAFG [SLC25A25] | 2.31 ± 0.39 | 2.63 ± 0.13
IFCIKRFTKNNFFVEKNPTIVNFP [USP39] | 3.02 ± 0.74 | 2.38 ± 0.76
IFLFQDILVLTRPVTRNERHSYQV [NET1] | 2.58 ± 0.28 | 2.27 ± 0.27
IGLRLVLEYLYTANVTLSLDTVEE [KLHL14] | 2.96 ± 0.5 | 3.02 ± 0.47
IGNLVKILHGTRGELLLDVAWHPV [RBBP5] | 2.72 ± 0.41 | 2.65 ± 0.43
IGRAAGTGFTVNVAWNGPRMGDAD [HDAC6] | 3.02 ± 0.28 | 3.15 ± 0.32
IHAYNLGTNAWEEIATKPHEKIGF [KLHDC10] | 2.48 ± 0.15 | 2.57 ± 0.54
IHPKNPHAPTIHFNYRYFEVEEAD [CPOX] | 3.75 ± 0.18 | 3.88 ± 0.17
IKELYENFCKHNGSKNVFSTFRTP [ATL3] | 2.24 ± 0.36 | 2.29 ± 0.39
IKQIQQLFEEILSNSRQLKWLSCG [FBXO33] | 3.57 ± 1.6 | 1.94 ± 0.58
ILELVVLEQFVAILPKELQTWVRD [ZNF24] | 2.35 ± 0.54 | 2.45 ± 0.46
ILGPSSAYTQTQFHNLRNTLDGYG [NFE2L1] | 2.46 ± 0.17 | 2.33 ± 0.25
ILVLTRPVTRNERHSYQVYRQPIP [NET1] | 2.33 ± 0.51 | 2.11 ± 0.38
IMTVKEDQFSALGLDPCLLEDELD [SLC6A17] | 4.45 ± 0.33 | 4.46 ± 0.3
INNGDFEAYTKICDPGLTAFEPEA [CAMK2D] | 4.08 ± 0.41 | 4.36 ± 0.18
INSIIHNPRAPVIIYKQTKGGVQN [CEP70] | 2.86 ± 0.43 | 3.34 ± 0.51
IPAGARDIQIVERKKSADVLALAD [ADAMTSL2] | 4.68 ± 0.32 | 4.86 ± 0.38

Sequence | protein stability index (treatment: DMSO) | protein stability index (treatment: MLN4924 1 uM, 8 h)
IPVAMEHQPPYIIAVLPRYVEIRT [VPS39] | 2.6 ± 0.48 | 2.44 ± 0.46
IQAINGESTELMTHLEAQNRIKGC [PDLIM4] | 4.1 ± 0.19 | 4.15 ± 0.14
IRHNLSLNKCFIKVPREKDEPGKG [FOXJ1] | 3.78 ± 0.3 | 3.9 ± 0.2
IRLKESINCQLSDPSSTKPGTLLK [TRIM14] | 3.28 ± 0.3 | 3.48 ± 0.33
IRMIQEEKESTELRAEEIETRVTS [PPFIA4] | 5.22 ± 0.33 | 5.21 ± 0.38
ISCVICNDIMAYMFGFFFGRTPLI [CDS2] | 3.31 ± 0.35 | 2.92 ± 0.48
ISEKLTLLPTLYEIHSKTTAYSRL [RNF180] | 2.51 ± 0.29 | 2.06 ± 0.085
ISRAQYNALTLTFQRAMHDYNQAE [STX11] | 2.21 ± 0.14 | 2.35 ± 0.14
ISSGVVSIWAQNQVENWSAFAPDF [RBBP5] | 2.44 ± 0.3 | 2.4 ± 0.25
KAEELDRRERELQHAALGGTATRQ [SCAMP3] | 5.15 ± 0.12 | 5.21 ± 0.22
KAQLLEQAQGQLRELLDRAMREAI [SOAT2] | 2.29 ± 0.33 | 2.37 ± 0.42
KDAPCYESDTDIYETVAAATSEST [DRICH1] | 5.4 ± 0.15 | 5.38 ± 0.1
KDGKAFHPTYEEKLKLVALHKQVL [ACBD3] | 2.68 ± 0.33 | 2.65 ± 0.11
KDLDGMDADILGLKKSNSAPSKKA [FBF1] | 5.03 ± 0.22 | 5 ± 0.18
KEKTAKHFFALKVMSIPDVIRLKQ [PRKX] | 2.44 ± 0.23 | 2.22 ± 0.2
KEKWWDGQRDRKAEHWKHKKEESG [PBXIP1] | 4.54 ± 0.21 | 4.66 ± 0.52
KERPLVIGHFNTASGVGFILGPVV [MFSD9] | 3.04 ± 1.1 | 2.77 ± 0.51
KESAQCVGDEFLNCKLATRAKDFL [SNX8] | 3.32 ± 0.2 | 3.21 ± 0.36
KFAGSFYFAITVITTIGYGHAAPG [KCNK9] | 3.42 ± 0.31 | 3.27 ± 0.17
KGGEERKAEGGEEDSLGCLTADTK [IRX6] | 5.44 ± 0.25 | 5.52 ± 0.16
KGTFKDYVRDRADLNKDKPVIPAA [ETS1] | 4.35 ± 0.13 | 4.43 ± 0.16
KGTILKASVDYIRKLQKEQQRSKD [TFE3] | 3.41 ± 0.19 | 3.79 ± 0.38

Sequence | protein stability index (treatment: DMSO) | protein stability index (treatment: MLN4924 1 uM, 8 h)
KILISGLEPSTPYRFLLYGLHEGK [TNXB] | 2.75 ± 0.77 | 3.54 ± 2.4
KIMADIRAQYDELARKNREELDKY [KRT18] | 3.07 ± 0.15 | 3.19 ± 0.35
KINLQGDIVDRGSTNLGVNQAGFT [ADD1] | 3.74 ± 0.25 | 3.83 ± 0.19
KKFRTKSRTWAGEKSKREMYSRLK [CDC25A] | 3.05 ± 0.39 | 3.46 ± 0.28
KKKCLEWLLNNLMTHQNVELFKEL [GMCL1] | 2.54 ± 0.17 | 2.83 ± 0.78
KKKKIGFYFEVCGMMVESVNAKTL [PCDHGA10] | 2.28 ± 0.68 | 2.18 ± 0.38
KKLHKIQNKAQRQKDLIMKVENLT [TAF7L] | 3.23 ± 0.17 | 3.37 ± 0.12
KKVLKKMLKFLAKGEVPKGSCEDE [ATE1] | 2.11 ± 0.25 | 2.25 ± 0.47
KLAIIPGGGGTQRLPRAIGMSLAK [AUH] | 2.79 ± 0.05 | 2.88 ± 0.52
KLKDLSTVTSLQVPVLKPMDLMVE [PPP2R2C] | 3.33 ± 0.31 | 3.43 ± 0.27
KLQQLPADFGRLVNLQHLDLLNNK [LRRC59] | 2.97 ± 0.27 | 3.01 ± 0.33
KLQREMERREALCRQLSESESSLE [CCDC6] | 4.68 ± 0.18 | 4.85 ± 0.16
KMKQLTEETEVLAHEIERLQMEMK [TRIM35] | 4.06 ± 0.55 | 3.63 ± 0.28
KNERLWLLDDSKTWWRVRNAANRT [NCK2] | 2.31 ± 0.23 | 2.62 ± 0.37
KNIFGTPEFVAPEIVNYEPLGLEA [DAPK3] | 3.95 ± 0.23 | 4.26 ± 0.51
KPDGSRHQDVPSQDDSKPTQRQFT [AASDHPPT] | 5.44 ± 0.14 | 5.353 ± 0.026
KPHRLGDSEHEPVYRAELVGELNG [PWWP2B] | 5.01 ± 0.13 | 4.5 ± 0.4
KQAEICQLEEKLEIANEDRKHALE [CCDC89] | 5.52 ± 0.28 | 5.49 ± 0.077
KQYAMQRPNDDSLAFLDKIKSVKE [IQUB] | 3.64 ± 0.35 | 3.87 ± 0.3
KRRANQKSSAQGPIPWFLPESRSL [PPEF2] | 3.49 ± 0.23 | 3.57 ± 0.16
KRRGPQRSVDVVVSSVFLLTLSIA [PHTF1] | 2.55 ± 0.32 | 2.33 ± 0.23
